Results as given in PMC6209228, “Crystal structure and functional characterization of a cold-active acetyl xylan esterase (PbAcE) from psychrophilic soil microbe Paenibacillus sp” (PLoS ONE, 2018).

Tests used:
[1] = target: cold-active acetyl xylan esterase (PbAcE) from Paenibacillus sp. R4 (Paenibacillus sp. R4); experiment: AUC; sedimentation velocity, 20°C, 0.5 mg/ml PbAcE, 20 mM Tris-HCl pH 8.0, 150 mM NaCl, 45,000 rpm, SEDFIT
PbAcE = target: T1, PbAcE (Paenibacillus sp. R4, UniProt A0A452CSP2); experiment: p-nitrophenol release at […] nm, initial rates, double reciprocal plot; assay type: biochemical; settings: 20 mM Tris-HCl, 150 mM NaCl, pH 7.4; free enzyme
T1 construct: gene cloned in pET-28a (NdeI/XhoI), N-terminal His6 tag cut by thrombin, E. coli BL21(DE3); ~36 kDa monomer, hexamer 234 kDa; 1896 residues modelled in six chains; primers encode N-terminus MPNVDMP and C-terminus IEAYL; catalytic triad Ser185, Asp274, His303

purified protein = substrate: CCCC(=O)Oc1ccc([N+](=O)[O-])cc1; experiment: purified protein; assay type: biochemical, Paenibacillus sp. R4; settings: 20 mM Tris-HCl, 150 mM NaCl, pH 7.4, free enzyme

## cold-active acetyl xylan esterase (PbAcE) from Paenibacillus sp. R4 (enzyme)
[1]
  stoichiometry N: 6

## CC(=O)Oc1ccc([N+](=O)[O-])cc1 [pNP-C2, p-nitrophenyl acetate]
PbAcE
  Km: initial kinetic studies were performed for pNP-C2 and pNP-C4

B1: PbAcE (Paenibacillus sp. R4) (protein)
chain: MPNVDMPLSQLQDYKPELTNETDFDLFWDNAKALSNQKPLHAQVNLVQDYPLKSISIYDVVYDGADGTPIHGWYVTPKGEHQPGSLPVLVKYHGYSGNRGYPNELLQWASMGMAALAIDVRGQGGVTPDRAEYPQGGIPGWMTLGILDPASYYYKQVYLDCIRALDFVCSREEVDASRIAVYGGSQGGGLALAAAGLDSRPKLALPVFPFLCHFRRSVEIHASGPYVEIKNWFRRYDPEHRQEEQVYRTLSYFDGMNMASRIKARTLMAITLQDITCPPSTCFAAYNHLAGPKEVRLYHDYGHEGLPFHEEAMMRFIEAYL
notes: gene cloned in pET-28a (NdeI/XhoI), N-terminal His6 tag cut by thrombin, E. coli BL21(DE3); ~36 kDa monomer, hexamer 234 kDa; 1896 residues modelled in six chains; primers encode N-terminus MPNVDMP and C-terminus IEAYL; catalytic triad Ser185, Asp274, His303
Purified protein
  Km: 1230 ± 330 µM
  kcat: 0.19 ± 0.02 s⁻¹
